Test [1] addresses T1, hemagglutinin (HA) of influenza A/Japan/305/57 (H2N2) on whole virions (Influenza A virus A/Japan/305/1957(H2N2), UniProt P03451 16-562). In words: ELISA; BCC supernatant on coated inactivated whole virions. A general note: In an ELISA, binding on a coated surface is turned into a signal by an enzyme label.
Test [2] concerns the target T1, hemagglutinin (HA) of influenza …. In words: ELISA, purified IgG on inactivated whole virions.

B1: TCN-532 (5262_H18) (antibody, V domains shown)
VH: QVQLQESGPGLVKPSETLSLTCTVSGGSVSSETYYWSWIRQPPGKGLEWIGYIYYIGNTDYRPSLKSRVTISLDTSKNQFSLKLSSVTAADTAVYYCARGAYYDSSGYPAFYIWGQGTMVTVSS
VL: QSVLTQPPSVSGAPGQRVTISCTGSSSNIGSDYDVHWYKQLPGTAPKLLIFGNSNRPSGVPDRFSGSKSGTSASLAITGLQAEDEADYYCQSYDSSLSGFHVFGSGTKVTVL
In the case of B1, the “ELISA virus binding (OD450)” value in test [1] is 0.07 OD450. Further, the binding result in test [2] is recorded as “no binding”.

The values are drawn from patent publication US20150086555A1 (THERACLONE SCIENCES, published 2015).
